Source: patent US20040253646A1, “Pre-mrna splicing screening assay” (priority 2001, published 2004)
Entries after “also recorded” stand apart in the source; their conditions may differ.

Legend:
PLRG1 [1] = target: T1, PLRG1 (Homo sapiens, UniProt O43660); assay: GST pull-down protein binding assay, CDC5L mutants with GST-PLRG1; conditions: in vitro translated (FIG. 6A) or bacterially expressed His-tagged (FIG. 6B, 6C) proteins
T1 construct: using full-length GST-PLRG1 in pull-down experiments with each of the respective CDC5L truncation mutants; made in house; host or cells: E. coli BL21(DE3), vector pGEX-4T1
T1 sequence (O43660 257-396 limits assumed): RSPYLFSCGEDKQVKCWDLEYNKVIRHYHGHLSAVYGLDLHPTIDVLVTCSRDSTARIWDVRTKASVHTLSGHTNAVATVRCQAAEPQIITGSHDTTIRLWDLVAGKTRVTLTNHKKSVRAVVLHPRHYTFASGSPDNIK
Excerpt: (§1) The in vitro transcription and translation experiments were done with the T7 or SP6 RNA polymerase transcription/translation systems that used rabbit reticulocyte lysate (TNT systems, Promega) and L-[^35S] methionine (Amersham, AG1094) to produce [^35S] labelled proteins according to the manufacturer's recommendations. Aliquots of these reactions were used for protein-protein interaction assays as described below.
(§2) About 0.2 nmole of the appropriate GST-fusion recombinant protein was mixed with an equimolar amount of hexahistidine tagged bacterially expressed protein or 8-10 μl of the in vitro translation reaction above and incubated in binding buffer (250 mM NaCl, 50 mM HEPES pH 7:9, 2% BSA) at room temperature for 15 minutes. The binding reaction was then added to 25 μl of glutathione sepharose beads or antibody bound protein-G sepharose and mixed at 4° C. for 1-2 hrs. The beads were washed 3-4 times in 1 ml of PBS/0.1% Triton X-100 and resuspended in 25 μl 2×SDS PAGE loading dye before heating at 70° C. for 10 minutes or 95° C. for 5 minutes. Bound proteins were separated on a 10% or 12% SDS PAGE gel after which the gel was fixed in 50% methanol/10% acetic acid for 30 minutes. The fixed gel was then soaked in a fluorographic reagent (Amplify, Amersham) for 30 minutes before drying. Protein bands were detected by autoradiography at −80° C. after 4-16 hrs. For antibody probing, the gels containing proteins from the antibody beads were treated as described above in the SDS-PAGE and Western blotting section.
(§3) Point mutations generating stop codons were inserted into the cDNAs at approximately 100 amino acids intervals by PCR using the QuikChange site directed mutagenesis kit (Stratagene) according to the manufacturer's instructions. The cDNAs were sequenced to confirm the presence of the appropriate mutations. Regions of the cDNAs involved in binding and overlapping regions were subcloned into the vectors pGEX-4T1 (Amersham-Pharmacia) or pET-30a (Novagen) for use in E. coli expression and protein-protein interaction assays.

PLRG1 [2] = target: T2, PLRG1 (Homo sapiens, UniProt O43660); assay: as above; conditions: about 0.2 nmole GST-PLRG1, FIG. 4
T2 construct: using full-length GST-PLRG1 in pull-down experiments with each of the respective CDC5L truncation mutants; made in house; host or cells: E. coli BL21(DE3), vector pGEX-4T1
T2 sequence (O43660 1-514): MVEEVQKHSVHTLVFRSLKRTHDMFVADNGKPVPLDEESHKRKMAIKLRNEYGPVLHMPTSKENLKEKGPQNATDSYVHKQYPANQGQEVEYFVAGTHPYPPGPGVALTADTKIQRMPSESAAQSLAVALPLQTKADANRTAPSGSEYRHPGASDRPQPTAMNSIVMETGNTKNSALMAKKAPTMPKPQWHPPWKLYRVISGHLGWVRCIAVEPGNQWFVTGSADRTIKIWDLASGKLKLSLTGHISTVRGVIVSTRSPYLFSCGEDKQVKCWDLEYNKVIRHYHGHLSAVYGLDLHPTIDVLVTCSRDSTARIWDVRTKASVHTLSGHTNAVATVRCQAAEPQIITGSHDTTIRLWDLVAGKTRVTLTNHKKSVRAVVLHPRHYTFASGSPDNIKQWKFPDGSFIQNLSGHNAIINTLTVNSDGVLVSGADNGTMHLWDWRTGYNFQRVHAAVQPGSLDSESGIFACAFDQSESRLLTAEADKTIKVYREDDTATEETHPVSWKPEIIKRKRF
Excerpt: as §1, §2, §3

pull-down of in vitro translated CDC5L mutants by full-length GST-PLRG1 (PLRG1 [2]): pulled down less efficiently
B1: ΔCDC5Lg: CDC5L carboxyl terminal amino acids 706-800, mutant protein from region g (protein, UniProt Q99459 706-800, looked up, fragment)
chain: EAKRAAKMEKKMKILLGGYQSRAMGLMKQLNDLWDQIEQAHLELRTFEELKKHEDSAIPRRLECLKEDVQRQQEREKELQHRYADLLLEKETLKS
modifications: His6 tag
notes: CDC5L carboxyl terminal amino acids 706-800, mutant protein from region g
pull-down of CDC5L mutants by GST-ΔPLRG1f (amino acids 257-396) (PLRG1 [1]): will interact; also recorded: will pull-down
